Key:
mCherry-EB3 full length [1] = molecular target: mCherry-EB3 full length (UniProt Q9UPY8)
mCherry-EB3 full length [2] = molecular target: mCherry-EB3 full length (UniProt Q9UPY8); remark: listed apart in the source
mCherry-EB3 full length [3] = molecular target: mCherry-EB3 full length (UniProt Q9UPY8); experiment: fluorescence correlation spectroscopy; 15 nM His-GFP-MTLS and 200 nM EB3 on dynamic MTs, no GUVs; peak intensity at passing MT tips against solution; 60 sites assumed in 6 dimer lengths, 1:1 EB3:MTLS assumed
[4] = molecular target: dynamic microtubules (porcine brain tubulin) (porcine); experiment: speed of membrane tube spreading on microtubules compared with a one-step model; His-GFP-MTLS bound to GUV membrane, no EB3; the attachment rate was chosen by comparing model curves for 8, 16 and 26 s^-1 with experimental data
mCherry-EB3 full length [5] = molecular target: mCherry-EB3 full length (UniProt Q9UPY8); experiment: single-molecule TIRF microscopy (dwell times and binding events on microtubules); 0.12 nM His-GFP-MTLS, 50 ms/frame, 200 nM mCherry-EB3 as tracer of plus ends; dwell times fitted with an exponential; MT tip taken as 200 nm long

Chain of UniProt Q9UPY8 (Q9UPY8 whole entry): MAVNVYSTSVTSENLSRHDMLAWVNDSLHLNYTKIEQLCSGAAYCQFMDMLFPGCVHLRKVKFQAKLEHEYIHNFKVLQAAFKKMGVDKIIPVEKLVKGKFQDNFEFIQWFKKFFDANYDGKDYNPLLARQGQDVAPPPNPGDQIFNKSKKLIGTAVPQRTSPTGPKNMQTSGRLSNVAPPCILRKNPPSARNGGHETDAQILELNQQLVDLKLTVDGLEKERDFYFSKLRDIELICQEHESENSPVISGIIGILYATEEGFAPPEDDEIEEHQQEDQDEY
Chain of dynamic microtubules (porcine brain tubulin) (porcine) (P68363 whole entry, chain 1 of 2): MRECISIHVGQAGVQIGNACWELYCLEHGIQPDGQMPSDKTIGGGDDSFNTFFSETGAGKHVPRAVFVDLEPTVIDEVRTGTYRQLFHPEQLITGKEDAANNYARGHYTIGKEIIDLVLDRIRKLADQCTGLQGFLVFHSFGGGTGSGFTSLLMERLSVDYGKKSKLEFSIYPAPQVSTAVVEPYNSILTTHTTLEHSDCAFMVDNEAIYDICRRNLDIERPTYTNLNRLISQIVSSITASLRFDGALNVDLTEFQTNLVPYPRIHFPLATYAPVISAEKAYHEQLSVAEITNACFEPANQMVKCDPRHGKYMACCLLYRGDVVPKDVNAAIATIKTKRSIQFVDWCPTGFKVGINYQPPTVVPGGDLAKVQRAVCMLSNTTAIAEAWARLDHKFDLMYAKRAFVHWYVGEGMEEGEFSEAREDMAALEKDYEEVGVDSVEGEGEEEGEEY
Chain of dynamic microtubules (porcine brain tubulin) (porcine) (P02554 whole entry, chain 2 of 2, further chain): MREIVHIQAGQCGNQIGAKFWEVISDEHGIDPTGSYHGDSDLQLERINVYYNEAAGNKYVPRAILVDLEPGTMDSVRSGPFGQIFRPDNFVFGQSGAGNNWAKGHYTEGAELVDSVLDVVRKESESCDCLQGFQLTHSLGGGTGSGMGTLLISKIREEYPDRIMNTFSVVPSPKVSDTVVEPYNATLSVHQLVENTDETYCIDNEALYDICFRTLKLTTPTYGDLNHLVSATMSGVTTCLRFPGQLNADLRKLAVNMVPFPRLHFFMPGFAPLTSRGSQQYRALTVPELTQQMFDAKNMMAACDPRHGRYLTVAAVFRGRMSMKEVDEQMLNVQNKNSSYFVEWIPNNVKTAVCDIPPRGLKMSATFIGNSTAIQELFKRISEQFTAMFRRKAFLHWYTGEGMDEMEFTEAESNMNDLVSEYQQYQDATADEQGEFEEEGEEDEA

| Substance | duration of the first positive displacement of Bio-mCherry-MTLS-coated beads at growing MT tips with 100 nM EB3 (most events shorter than 1 s without EB3) (mCherry-EB3 full length [1]) | tubulation of GUVs on dynamic MTs at 200 nM EB3 and 15 nM His-GFP-MTLS (mCherry-EB3 full length [2]) | maximum probability of being bound to the EB3-bound MT tip (mCherry-EB3 full length [3]) | k on-m (estimated attachment rate of membrane-bound His-GFP-MTLS to the MT lattice, no EB3) [4] | fold association rate at MT tips (with 200 nM mCherry-EB3) over the on-rate at the MT shaft (mCherry-EB3 full length [5]) |
| --- | --- | --- | --- | --- | --- |
| Bio-mCherry-MTLS (from UniProt Q03001 7528-7570) | 15 s | – | – | – | – |
| His-GFP-MTLS (from UniProt Q03001 7528-7570) | – | 90% | 0.46 | 16 s⁻¹ | 2.5 fold |

Reference: article PMC7090928
